In US20220241413A1, “COMBINATION THERAPIES USING CD-38 ANTIBODIES” (Takeda Pharmaceutical Company Limited, priority 2019, published 2022):

Legend:
cynomolgus CD38 = cynomolgus CD38 (Macaca fascicularis, UniProt Q5VAN0); experiment: Binding to cynomolgus CD38
Description: Other Morphosys antibodies targeting CD38 are known (see, e.g., WO 2006/125640, which discloses four human antibodies: MOR03077, MOR03079, MOR03080, and MOR03100 and two murine antibodies: OKT10 and IB4). […] Moreover, the prior art antibodies have poor ADCC as well as CDC activity.

[1] = test system: relapsed/refractory multiple myeloma (RRMM); experiment: AB79-1501 study, AB79 plus PomDex combination cohort in RRMM: disease response; type: in vivo, human
Description: This is a multicenter, dose-escalation, open-label, single-arm, Phase 1/2a study designed to determine the safety, tolerability, efficacy, PK, and immunogenicity of AB79 monotherapy in patients with RRMM, and to provide a preliminary assessment of its activity against MM. This study is an amendment to the Phase 1/2a study in RRMM described in Example 1 (a) to allow for an increase in the number of patients enrolled in the Phase 1 study; and (b) to add a cohort of patients to evaluate AB79 combined with the backbone regimen of pomalidomide and dexamethasone (PomDex) in patients with RRMM who have received at least 2 prior therapies and are refractory to the last therapy before study entry. PomDex is approved for this patient population and adding an anti-CD38 monoclonal antibody to it, especially one that is given subcutaneously (SC), could be beneficial and convenient for patients.
The study provides a Confirmation Cohort and a Combination Cohort. […]
The preliminary efficacy of AB79 for MM is evaluated by measuring the ORR (defined as the proportion of patients who achieved a PR or better during study) and the composition of sCR, CR, VGPR, and PR as defined by the IMWG Uniform Response Criteria. MR will also be analyzed. In addition, the efficacy of AB79 is assessed in patients by measuring DOR, PFS, and 1-year OS. TTR will also be measured. […]

[2] = AB79-1002 phase 1b study, AB79 with LenDex or VRd in NDMM: safety; type: in vivo
Description: This is a Phase 1b, open-label, multicenter study to evaluate the safety, efficacy, tolerability, and pharmacokinetics (PK) of AB79 when added to 1 of 2 standard backbone regimens (lenalidomide plus dexamethasone [LenDex] or bortezomib [Velcade] plus lenalidomide and dexamethasone [VRd]) in adult patients with newly diagnosed multiple myeloma (NDMM) for whom stem cell transplantation (SCT) is not planned as initial therapy. The dose and schedule for the backbone regimens (LenDex and VRd) are given in accordance with product labeling or standard medical practice. Treatment cycles are 28 days until disease progression (PD) or unacceptable toxicity occurs. Treatment may be discontinued for other reasons listed below. AB79 is supplied by the sponsor. Bortezomib, dexamethasone, and lenalidomide are standard-of-care agents that are supplied from commercial sources.
300 mg of AB79 is administered subcutaneously once weekly for 8 weeks (8 doses), once every 2 weeks for 16 weeks (8 doses), and once every 4 weeks thereafter until PD (in combination with backbone therapy). Backbone therapies (LenDex or VRd) are dosed in accordance with product labeling/local institutional practices. VRd is given with bortezomib weekly×3 weeks and LenDex in a standard 28 day cycle. Patients are evaluated from first dose of AB79 until 30 days after PD or until protocol-defined treatment discontinuation criteria are met.
Changes in clinical laboratory parameters (standard hematology and chemistry), vital sign, electrocardiogram (ECG) monitoring, and Eastern Cooperative Oncology Group (ECOG) performance status that are judged by the investigator as clinically significant are recorded both on the source documentation and in the electronic case report (eCRF) as an AE. Toxicities that occur during the DLT evaluation period are used for the purposes of defining DLT and for subsequent cohort expansion or dose modification decisions. DLTs are based on AB79-related toxicities.
The study was designed to determine the recommended phase 2 dose (RP2D) and to provide a preliminary assessment of the AB79 combinations against NDMM. Parameters such as safety, tolerability, pharmacokinetics (PK), pharmacodynamics (PD), and disease response were assessed.

[3] = AB79 300 or 600 mg with LenDex or VRd, 10 patients enrolled

Chain of cynomolgus CD38 (Q5VAN0 whole entry): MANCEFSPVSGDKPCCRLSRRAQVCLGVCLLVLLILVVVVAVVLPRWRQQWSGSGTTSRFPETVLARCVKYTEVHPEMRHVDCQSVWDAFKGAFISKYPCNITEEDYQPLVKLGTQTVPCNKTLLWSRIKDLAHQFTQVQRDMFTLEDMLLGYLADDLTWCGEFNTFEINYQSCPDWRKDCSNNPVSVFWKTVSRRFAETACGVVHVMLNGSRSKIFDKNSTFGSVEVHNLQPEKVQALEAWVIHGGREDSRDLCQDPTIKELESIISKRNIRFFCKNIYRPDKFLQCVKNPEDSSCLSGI

Substance: AB79: anti-CD38 monoclonal IgG1 antibody; heavy chain SEQ ID NO:11, light chain SEQ ID NO:12
- binding to cynomolgus CD38 (cynomolgus CD38): binds
- clinical benefit rate (minor response or better) [1]: 100%
- preliminary objective response rate (ORR) [1]: 40%
- TEAE regardless of causality: abdominal pain [2, 3]: 2 patients
- TEAE regardless of causality: chills [2, 3]: 2 patients
- TEAE regardless of causality: decreased lymphocyte count [2, 3]: 5 patients
- TEAE regardless of causality: diarrhea [2, 3]: 3 patients
- TEAE regardless of causality: dysgeusia [2, 3]: 2 patients
- TEAE regardless of causality: fatigue [2, 3]: 2 patients
- TEAE regardless of causality: muscle spasms [2, 3]: 2 patients
- TEAE regardless of causality: nausea [2, 3]: 2 patients
- TEAE regardless of causality: neutropenia [2, 3]: 2 patients
- TEAE regardless of causality: peripheral edema [2, 3]: 2 patients
- TEAE regardless of causality: sinusitis [2, 3]: 2 patients
- dose-limiting toxicities (DLTs) ([2]; AB79 with LenDex or VRd): No DLTs
- drug-related serious AEs, AEs that resulted in any drug discontinuation, or on-study deaths ([2]; AB79 with LenDex or VRd): no
